# Reference: patent US20020142457A1, “Cell having the potentiality of differentiation into cardiomyocytes” (priority 1999, published 2002)
# Ends that are not written are not given here.
# B1: BMP4: bone morphogenic protein 4, cytokine (protein, UniProt P12644 293-408, looked up)
# Bone morphogenetic protein 4: SPKHHSQRARKKNKNCRRHSLYVDFSDVGWNDWIVAPPGYQAFYCHGDCPFPLADHLNSTNHAIVQTLVNSVNSSIPKACCVPTELSAISMLYLDEYDKVVLKNYQEMVVEGCGCR
# B2: FGF-8: fibroblast growth factor 8, cytokine (protein, UniProt P55075 23-233, looked up)
# Fibroblast growth factor 8: QEGPGRGPALGRELASLFRAGREPQGVSQQHVREQSLVTDQLSRRLIRTYQLYSRTSGKHVQVLANKRINAMAEDGDPFAKLIVETDTFGSRVRVRGAETGLYICMNKKGKLIAKSNGKGKDCVFTEIVLENNYTALQNAKYEGWYMAFTRKGRPRKGSKTRQHQREVHFMKRLPRGHHTTEQSLRFEFLNYPPFTRSLRGSQRTWAPEPR
# B3: midkine: cytokine, amino acid sequence SEQ ID NO:68 (protein, listed as Homo sapiens)
# chain: MQHRGFLLLTLLALLALTSAVAKKKDKVKKGGPGSECAEWAWGPCTPSSKDCGVGFREGTCGAQTQRIRCRVPCNWKKEFGADCKYKFENWGACDGGTGTKVRQGTLKKARYNAQCQETIRVTKPCTPKTKAKAKAKKGKGKD
# modifications: CDS (1)..(432)
# What was measured:
# [1] = system: mouse bone marrow-derived pluripotent stem cells (BMSC); assay: Differentiation of BMSC into myotubes, phase-contrast microscope; assay type: cell-based; conditions: 5-aza-C 3 μM in all dishes, cytokine 10 ng/ml, four weeks after addition of 5-aza-C
# Description: The mouse bone marrow-derived pluripotent stem cells (BMSC) having the potential to differentiate into cardiomyocytes were plated into 60-mm culture dishes and 60 mm fibronectin-coated dishes (Becton Dickinson) at a density of 2×10^4 cells/ml and cultured at 33° C. in a 5% CO2-incubator.
# On the next day, 5-aza-C was added to each culture medium in a final concentration of 3 μM, followed by culturing with the following 3 different treatments, with addition of PDGF (culture dish A), both PDGF and retinoic acid (culture dish B) or without addition of any compound (culture dish C) (final concentration: PDGF, 10 ng/ml; retinoic acid, 10^−9 M).
# On the next day, the medium was replaced with a fresh medium to remove 5-aza-C therefrom. Then, PDGF was added to the culture dish A until the final concentration of PDGF came to be 10 ng/ml, while PDGF and retinoic acid were added to the culture dish B until the final concentrations of PDGF and retinoic acid came to be 10 ng/ml and 10^−9 M, respectively. Two and four days thereafter, the medium was replaced and the PDGF or retinoic acid was further added.
# As a result, about 30% of the cells in the culture dish containing 5-aza-C alone differentiated into myotubes, while about 40% of the cells in the culture dish containing PDGF and about 50% of the cells in the culture dish containing PDGF together with retinoic acid differentiated into myotubes. In the three groups of the fibronectin-coated dishes, the ratio of the cells differentiated into myotubes was about 10% higher than in the three groups of the culture dishes.
# (§1) RNAs were collected from the myotubes thus obtained. And genes expressed in the myotubes were analyzed with quantitative PCR analysis using the synthetic oligonucleotides represented by SEQ ID NOS:71 to 78. As a result, PDGF or retinoic acid promoted the expression of MyoD and fTnI genes relating to a skeletal muscle but not cTnI or ANP specifically relating to a myocardium. Next, mouse bone marrow-derived pluripotent stem cells (BMSC) having the potential to differentiate into cardiomyocytes were inoculated in a 60-mm culture dish at a density of 2×10^4 cells/ml and cultured using an incubator at 33° C. under 5% of CO2.
# On the next day, 5-aza-C was added to the liquid culture medium to give a final concentration of 3 μM. Furthermore, five treatments differing from each other were performed by adding FGF-8 to give a final concentration of 10 ng/ml (culture dish D); adding ET-1 to give a final concentration of 10 ng/ml (culture dish E); adding a midkine to give a final concentration of 10 ng/ml (Culture dish F); adding BMP4 to give a final concentration of 10 ng/ml (culture dish G); and adding no compound (culture dish H), followed by culturing.
# On the next day, the medium was replaced by a fresh medium to eliminate 5-aza-C therefrom. Then, FGF-8 was added to the culture dish D to give a final concentration of 10 ng/ml; ET-1 was added to the culture dish E to give a final concentration of 10 ng/ml; the midkine was added to the culture dish F to give a final concentration of 10 ng/ml; and BMP4 was added to the culture dish G to give a final concentration of 10 ng/ml, followed by culturing. Two and four days thereafter, the medium was replaced and the FGF-8, ET-1, midkine or BMP4 was further added.
# As a result, about 30% of the cells in the culture dish containing 5-aza-C alone differentiated into myotubes, while about 50% of the cells in the culture dishes containing FGF-8, ET-1, midkine or BMP4 differentiated into myotubes respectively.
# [2] = system: mouse bone marrow-derived pluripotent stem cells (BMSC); assay: Quantitative PCR of genes expressed in myotubes from BMSC; assay type: cell-based; conditions: with 5-aza-C 3 μM, cytokine 10 ng/ml
# Description: as §1
# RNAs were collected from the myotubes thus obtained. And genes expressed in the myotubes were analyzed with quantitative PCR using the synthetic oligonucleotides represented by SEQ ID NOS:71 to 78. As a result, the FGF-8, ET-1, midkine and BMP4 each individually promoted the expression of cTnI and ANP gene which are myocardium-specific genes.
# [3] = system: Nkx2.5/Csx and GATA4 co-forced expressing bone marrow cells (BMSC-Nkx2.5-GATA4); assay: Differentiation of BMSC-Nkx2.5-GATA4 with cytokines, phase-contrast microscope; assay type: cell-based, mouse; conditions: cytokine 10 ng/ml, four weeks; for cells differentiated into myotubes: BMSC-Nkx2.5-GATA4, 5-aza-C 3 μM in all dishes; for beating cardiomyocytes: BMSC-Nkx2.5-GATA4, 5-aza-C 3 μM
# Description: The Nkx2.5/Csx and GATA4 co-forced expressing bone marrow cells (BMSC-Nkx2.5-GATA4) having the potential to differentiate into cardiomyocytes were plated into a 60-mm culture dish at a density of 2×10^4 cells/ml and cultured at 33° C. in a 5% CO2-incubator.
# On the next day, 5-aza-C was added to the culture medium to give a final concentration of 3 μM. Furthermore, 5 treatments differing from each other were carried out by adding FGF-8 to give a final concentration of 10 ng/ml (culture dish I); adding ET-1 to give a final concentration of 10 ng/ml (culture dish J); adding midkine to give a final concentration of 10 ng/ml (culture dish K); adding BMP4 to give a final concentration of 10 ng/ml (culture dish L); and adding nothing (culture dish M), followed by culturing.
# On the next day, the medium was replaced with a fresh medium to eliminate 5-aza-C. Then, FGF-8 was added to the culture dish I to give a final concentration of 10 ng/ml; ET-1 was added to the culture dish J to give a final concentration of 10 ng/ml; midkine was added to the culture dish K to give a final concentration of 10 ng/ml; and BMP4 was added to the culture dish L to give a final concentration of 10 ng/ml, followed by culturing. Two and four days thereafter, furthermore, the medium was replaced, and the FGF-8, ET-1, midkine or BMP4 was added.
# As a result, about 30% of the cells in the culture dish containing 5-aza-C alone were converted into myotubes, while about 50% of the cells in the culture dishes containing FGF-8, ET-1, midkine or BMP4 differentiated into myotubes respectively. On the other hand, the addition of FGF-8, ET-1, midkine or BMP4 caused no increase in beating cardiomyocytes.
# [4] = system: Nkx2.5/Csx and GATA4 co-forced expressing bone marrow cells (BMSC-Nkx2.5-GATA4); assay: Quantitative PCR of genes expressed in myotubes from BMSC-Nkx2.5-GATA4; assay type: cell-based, mouse; conditions: BMSC-Nkx2.5-GATA4, 5-aza-C 3 μM, cytokine 10 ng/ml
# Source text: From the myotubes thus obtained, RNAs were collected and genes expressed in the myotubes were subjected to quantitative PCR analysis using the synthetic oligonucleotides represented by SEQ ID NOS:71 to 78.
Molecule,cells differentiated into myotubes [1],expression of cTnI and ANP gene (myocardium-specific genes) [2],cells differentiated into myotubes [3],beating cardiomyocytes [3],expression of cTnI and ANP promoted by forced expression of Nkx2.5/Csx and GATA4 [4]
"ET-1: endothelin 1, cytokine (CSCSSLMDKECVYFCHLDIIW; ends and bridges not checked; cysteine pairing not given here; UniProt P05305 53-73, looked up)",about 50%,promoted,about 50%,no increase,did not further promote
B1,about 50%,promoted,about 50%,no increase,did not further promote
B2,about 50%,promoted,about 50%,no increase,did not further promote
B3,about 50%,promoted,about 50%,no increase,did not further promote
